In article PMC11488100, “PET imaging of CXCR4 expression using [^18F]AlF-NOTA-QHY-04 for hematologic malignancy and solid tumors” (Theranostics, 2024):
Bridge positions count the residues as written; N and C are the ends. Square brackets hold non-standard residues; d marks the D form. Peptide text beside a SMILES is read from it. * marks the point of attachment. NOTA = O=C(O)CN1CCN(CC(=O)O)CCN(CC(=O)*)CC1; 2Nal = N[C@@H](Cc1ccc2ccccc2c1)C(=O)O; Pen = CC(C)(S)[C@H](N)C(=O)O; 4Amb = NCc1ccc(C(=O)O)cc1; Ahx = NCCCCCC(=O)O

Format: physicochemical
Conditions: pH 7.4
Method: Synthesis of [18F]AlF-NOTA-QHY-04
Briefly, NOTA-QHY-04 was radiolabeled with [18F]F-, following procedures. 10-20
GBq [18F]F− produced by medical cyclotron (MINITRACE Cyclotron, GE, USA) was
captured with a QMA SepPak light cartridge (Waters Corporation, USA) and then eluted
with 300-500 μL saline (0.9% NaCl). Then, the saline containing [18F]F− was added to
reaction vial, followed by 6-12 μL AlCl3 (10 mM in 0.1M sodium acetate buffer, pH 4),
200 μL acetonitrile (≥ 99.9%, Sigma-Aldrich, USA), and 20-30 μL of NOTA-QHY-04
(20 mg/mL in metal-free water). The vial was heated for 10 min at 110°C. After cooling,
the reaction system was diluted with 10 mL of water and was transferred to a Qasis light
HLB cartridge (Waters Corporation, USA). The cartridge was then washed with 10 mL of
water to remove the free [18F]F−. Finally, the desired product was eluted and collected
with 0.6 mL of ethanol. The product was reconstituted in saline and passed through a 0.22
μm syringe filter (Pall Corporation, USA) into a sterile vial.
Octanol-water partition coefficient (logD)
The partition coefficient (logD) of [18F]AlF-NOTA-QHY-04 was determined in a […]
from each phase were measured for radioactivity using a γ-counter. […]
repeated three times to ensure the accuracy of the results. The logD was calculated by
dividing the average radioactivity in the 1 -octanol layer by that in the PBS layer, and the […]

C[C@H](NC(=O)[C@H](CCCNC(=N)N)NC(=O)CCCCCNC(=O)c1ccc(CNC(=O)CN2CCN(CC(=O)O)CCN(CC(=O)O)CC2)cc1)C(=O)N[C@@H]1CSSC(C)(C)[C@@H](C(=O)O)NC(=O)[C@H](Cc2c[nH]cn2)NC(=O)[C@H](Cc2ccc3ccccc3c2)NC(=O)[C@H](CCCNC(=N)N)NC1=O [[^18F]AlF-NOTA-QHY-04] ({NOTA-4Amb-Ahx}-RA[dC]R[2Nal]H[Pen]-OH; disulfide 3-7)
logD: -2.21 ± 0.06
